Like-named read-outs stand apart in the source and are kept apart here. Where no end group is shown, it is not given here.
B1: KALI-D (designed binder)
chain: VREVCSEQAEDGHCRAAHPRWYFDVTEGKCAPFFYGGCGGNRNNFDTEEYCAAVCGSA
B2: KALI-PV (designed binder)
chain: VREVCSEQAEPGHCRAAHPRWYFDVTEGKCAPFVYGGCGGNRNNFDTEEYCAAVCGSA
B3: KALI-PY (designed binder)
chain: VREVCSEQAEPGHCRAAHPRWYFDVTEGKCAPFYYGGCGGNRNNFDTEEYCAAVCGSA
modifications: not fully specified (bridges); cysteine pairing not given here
B4: KALI-E (designed binder)
chain: VREVCSEQAEEGHCRAAHPRWYFDVTEGKCAPFFYGGCGGNRNNFDTEEYCAAVCGSA
B5: KALI-EV (designed binder)
chain: VREVCSEQAEEGHCRAAHPRWYFDVTEGKCAPFVYGGCGGNRNNFDTEEYCAAVCGSA
B6: KALI-EY (designed binder)
chain: VREVCSEQAEEGHCRAAHPRWYFDVTEGKCAPFYYGGCGGNRNNFDTEEYCAAVCGSA
B7: KALI-13 (designed binder)
chain: VREVCSEQAESGHCRAAIPRWYFDVTEGKCAPFFYGGCGGNRNNFDTEEYCAAVCGSA
B8: KALI-48 (designed binder)
chain: VREVCSEQAETGHCRAAIPRWYFDVTEGKCAPFFYGGCGGNRNNFDTEEYCAAVCGSA
B9: KALI-8 (designed binder)
chain: VREVCSEQAELGHCRAAIPRWYFDVTEGKCAPFFYGGCGGNRNNFDTEEYCAAVCGSA
B10: KALI-DV (designed binder)
chain: VREVCSEQAEDGHCRAAHPRWYFDVTEGKCAPFVYGGCGGNRNNFDTEEYCAAVCGSA
B11: KALI-30 (designed binder)
chain: VREVCSEQAEEGHCRAAILRWYFDVTEGKCAPFFYGGCGGNRNNFDTEEYCAAVCGSA
B12: KALI-46 (designed binder)
chain: VREVCSEQAEEGRCRASILRWYFDVTEGKCAPFFYGGCGGNRNNFDTEEYCAAVCGSA
B13: KALI-DY (designed binder)
chain: VREVCSEQAEDGHCRAAHPRWYFDVTEGKCAPFYYGGCGGNRNNFDTEEYCAAVCGSA
B14: KALI-P (designed binder)
chain: VREVCSEQAEPGHCRAAHPRWYFDVTEGKCAPFFYGGCGGNRNNFDTEEYCAAVCGSA

Experiments:
Human Factor XIa [1] = target: T1, Human Factor XIa (human, UniProt P03951); assay: enzyme inhibition of FXIa, chromogenic substrate, fit to the tight-binding equation (apparent Ki*)
Human plasma kallikrein [2] = target: T2, Human plasma kallikrein (human, UniProt P03952); assay: enzyme inhibition of plasma kallikrein (apparent Ki*)
Human plasma kallikrein [3] = target: T2, Human plasma kallikrein; assay: enzyme inhibition of plasma kallikrein, substrate S2302, fit to the tight-binding equation (apparent Ki*)
Human Factor XIa [4] = target: T1, Human Factor XIa; assay: enzyme inhibition of FXIa, chromogenic substrate, fit to the tight-binding equation (apparent Ki*); remark: listed apart in the source
Human plasma kallikrein [5] = target: T2, Human plasma kallikrein; assay: enzyme inhibition of plasma kallikrein, substrate S2302, fit to the tight-binding equation (apparent Ki*); remark: listed apart in the source
Protocol: Determination of the apparent equilibrium dissociation constants of selected Kunitz domains with plasma kallikrein and FXIa. The inhibitory activity is expressed as the fractional activity (inhibited rate/uninhibited rate) at varying inhibitor concentrations. The apparent equilibrium dissociation constants were determined by nonlinear regression analysis of the data to equation 1.
Plots of the fractional rate versus inhibitor concentration were fit by nonlinear regression analysis to Equation 1 to determine apparent equilibrium dissociation constants (K_i^*):

Human plasma kallikrein [6] = target: T2, Human plasma kallikrein; assay: enzyme inhibition of plasma kallikrein (apparent Ki*), against BPTI
Human plasma kallikrein [7] = target: T2, Human plasma kallikrein; assay: enzyme inhibition of plasma kallikrein (apparent Ki*), against APPI

Binder | Ki (Human Factor XIa [1]) [pM] | Ki (Human plasma kallikrein [3]) [pM] | Ki (Human Factor XIa [4]) [pM] | Ki (Human plasma kallikrein [5]) [pM] | other results
B1 | 5700 | 25 |  |  | Ki (Human plasma kallikrein [2]): < 50 pM
B2 | 4100 | 166 |  |  | 
B3 | 11700 | 136 |  |  | 
B4 | 4500 | 103 |  |  | 
B5 |  | 117 |  |  | 
B6 | 7300 | 980 |  |  | 
B7 |  |  | 1400 | 203 | 
B8 |  |  | 700 | 209 | 
B9 |  |  | 300 | 74 | 
B10 | 1300 | 43 |  |  | Ki (Human plasma kallikrein [2]): < 50 pM
B11 |  |  | 400 | 258 | 
B12 |  |  | 300 | 175 | 
B13 | 8200 | 15 |  |  | fold more potent than BPTI (Human plasma kallikrein [6]): 3000 fold; Ki (Human plasma kallikrein [2]): < 50 pM; fold better inhibition than APPI (Human plasma kallikrein [7]): > 10000 fold
B14 | 13800 | 200 |  |  | 
